Experimental findings from patent publication US20250230222A1 (NORTHWESTERN UNIVERSITY, published 2025) are described below.

The test deals with SARS-nCoV-2 Spike RBD (Raybiotech, catalog no. 230-30162), recombinant wildtype (SARS-CoV-2, UniProt P0DTC2 319-541).

B1: IgG 106/107 (antibody, V domains shown)
VH: EVQLVESGGGLVQPGGSLRLSCVASGITVSANYMSWVRQAPGKGLEWVSVIYSGGSTFYADSVKGRFTISRDNSKNTLYLQMNNLRADDTAVYSCARDFRGATAFDIWGQGTMVTVSS
VL: QSALTQPASVSGSPGQSITISCTATSSDVDDYNYVSWYQQHPGKAPKLLIYDVNNRPSGVSNRFSGSKSGNTASLTISGLQAEDEADYYCSSYTSSSTGVFGSGTKVTVLG
Broadly, the IC50 is the concentration at which inhibition is half-maximal. For the molecule B1, the IC50 was less than 0.5 nM.
